Variants at the floor of the assay were thinned out.
B1: TPR 5TU (parent)
chain: GGAUCUUCUCGAUCUAACAAAAAAGACAAAUCUGCCACAAAGCUUGAGAGCAUCUUCGGAUGCAGAGGCGGCAGCCUUCGGUGGCGCGAUAGCGCCAACGUUCUCAACUAUGACACGCAAAACGCGUGCUCCGUUGAAUGGAGUUUAUCAUG

Variants of: B1
Experiment: polymerase ribozyme fitness, log enrichment relative to wild type (log ratio); higher = more active; in vitro selection for triplet polymerase activity
Outline: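 Libraries of mutants in each subunit of a heterodimeric triplet polymerase ribozyme were generated by PCR and transcribed. In triplicate, each went through one in vitro selection round: annealing with biotinylated primer, partner subunit and triplets; frozen incubation at −7 °C; gel excision of extended constructs; streptavidin-bead capture; RT-PCR. Fitness, taken from Illumina sequencing of input and output libraries, is the logarithm of a genotype's enrichment over wild-type enrichment, averaged across replicates with inverse-variance weights. The logarithm is base 2, and genotypes needed ≥10 input reads and ≥1 read per output to be kept.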

| Variant | polymerase ribozyme fitness (log ratio) |
| --- | --- |
| GGAUCUUCUCGAUCUAACAAAAAAGACAAAUCUGCCACAAAGCUUGAGAGCAUCUUCGGAUGCAGAGGCGGCAGCCUUCGGUGGCGCGAUAGCGCCAACGUUCUCAACUAUGACACGCAAAACGCGGGCUCCGCUGAAUGGAGUUUAUCAUG | -3.03 |
| GGAUCUUCUCGAUCUAACAAAAAAGACAAAUCUGCCACAAAGCUUGAGAGCAUCUUCGGAUGCAGAGGCGGCAGCCUUCGGUGGCGCGAUAGCGCCAACGUUCUCAACUAUGACACGCAAAACGCAUGCUCCGUUGAAUAGAGUUUAUCAUG | -3.54 |
| GGAUCUUCUCGAUCUAACAAAAAAGACAAAUCUGCCACAAAGCUUGAGAGCAUCUUCGGAUGCAGAGGCGGCAGCCUUCGGUGGCGCGAUAGCGCCAACGUUCUCAACUAUGACACGCAAAACGUGUGCUCCGAUGAAUGGAGUUUAUCAUG | -1.89 |
| GGAUCUUCUCGAUCUAACAAAAAAGACAAAUCUGCCACAAAGCUUGAGAGCAUCUUCGGAUGCAGAGGCGGCAGCCUUCGGUGGCGCGAUAGCGCCAACGUUCUCAACUAUGACACGCAAAACGUGUGCUCCGUUGAAUGGAGUCUAUCAUG | -0.634 |
| GGAUCUUCUCGAUCUAACAAAAAAGACAAAUCUGCCACAAAGCUUGAGAGCAUCUUCGGAUGCAGAGGCGGCAGCCUUCGGUGGCGCGAUAGCGCCAACGUUCUCAACUAUGACACGCAAAACGUGUGCUCCGUUGAAUGGAGUUUAGCAUG | ≤ -4.2 |
| GGAUCUUCUCGAUCUAACAAAAAAGACAAAUCUGCCACAAAGCUUGAGAGCAUCUUCGGAUGCAGAGGCGGCAGCCUUCGGUGGCGCGAUAGCGCCAACGUUCUCAACUAUGACACGCAAAACUCGUGCUCCGUUAAAUGGAGUUUAUCAUG | 0.382 |
| GGAUCUUCUCGAUCUAACAAAAAAGACAAAUCUGCCACAAAGCUUGAGAGCAUCUUCGGAUGCAGAGGCGGCAGCCUUCGGUGGCGCGAUAGCGCCAACGUUCUCAACUAUGACACGCAAAACGCGGGCUCCGUUGAAUAGAGUUUAUCAUG | -4.15 |
| GGAUCUUCUCGAUCUAACAAAAAAGACAAAUCUGCCACAAAGCUUGAGAGCAUCUUCGGAUGCAGAGGCGGCAGCCUUCGGUGGCGCGAUAGCGCCAACGUUCUCAACUAUGACACGCAAAACGAGUGCUCCGCUGAAUGGAGUUUAACAUA | -4.13 |
| GGAUCUUCUCGAUCUAACAAAAAAGACAAAUCUGCCACAAAGCUUGAGAGCAUCUUCGGAUGCAGAGGCGGCAGCCUUCGGUGGCGCGAUAGCGCCAACGUUCUCAACUAUGACACGCAAAACUCGUGCUCCGUUGAAUAGAGUUUAUCAUG | -4 |
| GGAUCUUCUCGAUCUAACAAAAAAGACAAAUCUGCCACAAAGCUUGAGAGCAUCUUCGGAUGCAGAGGCGGCAGCCUUCGGUGGCGCGAUAGCGCCAACGUUCUCAACUAUGACACGCAAAACGCAUGCUCCCUUGAAUGGAGUUCAUCAUG | -2.5 |
| GGAUCUUCUCGAUCUAACAAAAAAGACAAAUCUGCCACAAAGCUUGAGAGCAUCUUCGGAUGCAGAGGCGGCAGCCUUCGGUGGCGCGAUAGCGCCAACGUUCUCAACUAUGACACGCAAAACGAGUGCUCCGUUGAAUGGAGUUCAUCAUG | -0.394 |
| GGAUCUUCUCGAUCUAACAAAAAAGACAAAUCUGCCACAAAGCUUGAGAGCAUCUUCGGAUGCAGAGGCGGCAGCCUUCGGUGGCGCGAUAGCGCCAACGUUCUCAACUAUGACACGCAAAACGAGUGCUCCGUUGAAUGGAGUUGAUCAUG | -0.126 |
| GGAUCUUCUCGAUCUAACAAAAAAGACAAAUCUGCCACAAAGCUUGAGAGCAUCUUCGGAUGCAGAGGCGGCAGCCUUCGGUGGCGCGAUAGCGCCAACGUUCUCAACUAUGACACGCAAAACGCGGGCUCCGUUGAAUGGAGUUUUUCAUG | -3.92 |
| GGAUCUUCUCGAUCUAACAAAAAAGACAAAUCUGCCACAAAGCUUGAGAGCAUCUUCGGAUGCAGAGGCGGCAGCCUUCGGUGGCGCGAUAGCGCCAACGUUCUCAACUAUGACACGCAAAACGUGUGCUCCGUUGAAUGGAUUUUAUCAUG | -3.2 |
| GGAUCUUCUCGAUCUAACAAAAAAGACAAAUCUGCCACAAAGCUUGAGAGCAUCUUCGGAUGCAGAGGCGGCAGCCUUCGGUGGCGCGAUAGCGCCAACGUUCUCAACUAUGACACGCAAAACGCAUGCUCUGUUGAAUGGAGUUUAUCAUG | -0.105 |
| GGAUCUUCUCGAUCUAACAAAAAAGACAAAUCUGCCACAAAGCUUGAGAGCAUCUUCGGAUGCAGAGGCGGCAGCCUUCGGUGGCGCGAUAGCGCCAACGUUCUCAACUAUGACACGCAAAACGAGUGCUCCGUUGAAUGGAGUUUAUCAUG | -0.171 |
| GGAUCUUCUCGAUCUAACAAAAAAGACAAAUCUGCCACAAAGCUUGAGAGCAUCUUCGGAUGCAGAGGCGGCAGCCUUCGGUGGCGCGAUAGCGCCAACGUUCUCAACUAUGACACGCAAAACGGGUGCUCCGUUGAAUGGAGUUUAUCAUG | -0.473 |
| GGAUCUUCUCGAUCUAACAAAAAAGACAAAUCUGCCACAAAGCUUGAGAGCAUCUUCGGAUGCAGAGGCGGCAGCCUUCGGUGGCGCGAUAGCGCCAACGUUCUCAACUAUGACACGCAAAACGUGUGCUCCGUUGAAUGGAGUUUAUCAUG | -0.476 |
| GGAUCUUCUCGAUCUAACAAAAAAGACAAAUCUGCCACAAAGCUUGAGAGCAUCUUCGGAUGCAGAGGCGGCAGCCUUCGGUGGCGCGAUAGCGCCAACGUUCUCAACUAUGACACGCAAAACGCGUACUCCUUUGAAUGGAGUUUAUCAUG | -4 |

Reference: the RNAGym collection of RNA variant scans (doi:10.1073/pnas.2313332121)
